B1: Tax1-binding protein 3 (Mus musculus), Q9DBG9 (parent)
chain: MSYTPGQPVTAVVQRVEIHKLRQGENLILGFSIGGGIDQDPSQNPFSEDKTDKGIYVTRVSEGGPAEIAGLQIGDKIMQVNGWDMTMVTHDQARKRLTKRSEEVVRLLVTRQSLQKAVQQSMLS

Variants of: B1
Conditions: with ctnb1_human CTNNB1, P35222
Chain of ctnb1_human CTNNB1, P35222 (P35222 whole entry): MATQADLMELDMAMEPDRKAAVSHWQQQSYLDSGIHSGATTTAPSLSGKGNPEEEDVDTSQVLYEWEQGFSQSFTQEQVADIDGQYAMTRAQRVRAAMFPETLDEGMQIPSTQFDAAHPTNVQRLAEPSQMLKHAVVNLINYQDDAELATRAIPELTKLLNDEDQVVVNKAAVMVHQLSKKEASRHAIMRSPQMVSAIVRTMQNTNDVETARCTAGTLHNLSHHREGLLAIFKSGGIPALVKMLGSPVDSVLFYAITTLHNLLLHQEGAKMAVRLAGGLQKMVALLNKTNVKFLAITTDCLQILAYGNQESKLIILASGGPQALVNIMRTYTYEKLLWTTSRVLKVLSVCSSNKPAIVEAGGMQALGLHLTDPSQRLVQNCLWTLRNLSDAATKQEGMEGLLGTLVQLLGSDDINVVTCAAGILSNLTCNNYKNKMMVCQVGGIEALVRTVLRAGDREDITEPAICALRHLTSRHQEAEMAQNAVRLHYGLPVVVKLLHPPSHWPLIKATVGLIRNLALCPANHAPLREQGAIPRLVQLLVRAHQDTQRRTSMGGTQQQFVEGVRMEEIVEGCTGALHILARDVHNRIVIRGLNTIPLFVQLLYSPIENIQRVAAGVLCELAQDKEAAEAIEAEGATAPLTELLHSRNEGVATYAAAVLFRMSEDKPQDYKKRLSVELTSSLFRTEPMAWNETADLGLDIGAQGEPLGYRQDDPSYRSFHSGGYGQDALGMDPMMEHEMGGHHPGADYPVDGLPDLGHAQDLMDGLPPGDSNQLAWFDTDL

| effect of a mutation on the interaction | Variant |
| --- | --- |
| decreasing interaction | MSYTPGQPVTAVVQRVEIHKLRQGENLILGFSIGGGIDQDPSQNSFSEDKTDKGIYVTRVSEGGPAEIAGLQIGDKIMQVNGWDMTMVTHDQARKRLTKRSEEVVRLLVTRQSLQKAVQQSMLS |
| decreasing interaction | MSYTPGQPVTAVVQRVEIHKLRQGENLILGFSIGGGIDQDPSQNAFSEDKTDKGIYVTRVSEGGPAEIAGLQIGDKIMQVNGWDMTMVTHDQARKRLTKRSEEVVRLLVTRQSLQKAVQQSMLS |

Variants of: B1
Conditions: with ctnb1_human CTNNB1, P35222
Remark: another data set of the same source

| effect of a mutation on the interaction | Variant |
| --- | --- |
| increasing interaction | MSYTPGQPVTAVVQRVEIHKLRQGENLILGFSIGGGIDQDPSQNAFSEDKTDKGIYVTRVSEGGPAEIAGLQIGDKIMQVNGWDMTMVTHDQARKRLTKRSEEVVRLLVTRQSLQKAVQQSMLS |

— IntAct's records for PubMed 18835279
